From the Human Domainome abundance scans (Beltran et al. 2025) come the findings set out here.

± gives the uncertainty stated by the source.

This data set can be described thus: abundance fitness (aPCA) (normalised: wild type 0, dead -1); higher = more abundant; growth selection in yeast, the domain comes from the species named. The settings on record: Homo sapiens.
For the substance “NEDD4-like E3 ubiquitin-protein ligase WWP2 K484T, O00308”, the abundance fitness was -0.025 ± 0.039.

As to “NEDD4-like E3 ubiquitin-protein ligase WWP2 K484V, O00308”, the abundance fitness is -0.143 ± 0.046.

For the substance “NEDD4-like E3 ubiquitin-protein ligase WWP2 K484W, O00308”, the abundance fitness was -0.101 ± 0.052.

As to “NEDD4-like E3 ubiquitin-protein ligase WWP2 K484Y, O00308”, the abundance fitness is -0.071 ± 0.029.

For “NEDD4-like E3 ubiquitin-protein ligase WWP2 L446A, O00308”, the abundance fitness was -0.4 ± 0.037.

For the substance “NEDD4-like E3 ubiquitin-protein ligase WWP2 L446C, O00308”, the abundance fitness was -0.065 ± 0.054.

Regarding “NEDD4-like E3 ubiquitin-protein ligase WWP2 L446D, O00308”, the abundance fitness was -0.556 ± 0.048.

In the case of “NEDD4-like E3 ubiquitin-protein ligase WWP2 L446E, O00308”, the abundance fitness is -0.576 ± 0.051.

For “NEDD4-like E3 ubiquitin-protein ligase WWP2 L446F, O00308”, the abundance fitness was -0.011 ± 0.07.

As for “NEDD4-like E3 ubiquitin-protein ligase WWP2 L446H, O00308”, the abundance fitness is -0.641 ± 0.12.

Turning to “NEDD4-like E3 ubiquitin-protein ligase WWP2 L446I, O00308”, the abundance fitness is -0.214 ± 0.081.

With “NEDD4-like E3 ubiquitin-protein ligase WWP2 L446K, O00308”, the abundance fitness is -0.688 ± 0.094.

As to “NEDD4-like E3 ubiquitin-protein ligase WWP2 L446M, O00308”, the abundance fitness is -0.05 ± 0.03.

With “NEDD4-like E3 ubiquitin-protein ligase WWP2 L446P, O00308”, the abundance fitness was -0.394 ± 0.083.

On to “NEDD4-like E3 ubiquitin-protein ligase WWP2 L446Q, O00308”, for which the abundance fitness is -0.491 ± 0.058.

Regarding “NEDD4-like E3 ubiquitin-protein ligase WWP2 L446R, O00308”, the abundance fitness was -0.901 ± 0.054.

Turning to “NEDD4-like E3 ubiquitin-protein ligase WWP2 L446S, O00308”, the abundance fitness is -0.601 ± 0.054.

For “NEDD4-like E3 ubiquitin-protein ligase WWP2 L446T, O00308”, the abundance fitness is -0.384 ± 0.071.

For the substance “NEDD4-like E3 ubiquitin-protein ligase WWP2 L446V, O00308”, the abundance fitness was -0.29 ± 0.052.

For “NEDD4-like E3 ubiquitin-protein ligase WWP2 L446W, O00308”, the abundance fitness is -0.435 ± 0.065.

As to “NEDD4-like E3 ubiquitin-protein ligase WWP2 L446Y, O00308”, the abundance fitness was -0.072 ± 0.07.

Turning to “NEDD4-like E3 ubiquitin-protein ligase WWP2 M440A, O00308”, the abundance fitness was -0.137 ± 0.1.

As for “NEDD4-like E3 ubiquitin-protein ligase WWP2 M440C, O00308”, the abundance fitness was -0.491 ± 0.32.

For the substance “NEDD4-like E3 ubiquitin-protein ligase WWP2 M440D, O00308”, the abundance fitness is -0.138 ± 0.29.

For “NEDD4-like E3 ubiquitin-protein ligase WWP2 M440E, O00308”, the abundance fitness is -0.085 ± 0.11.

Consider “NEDD4-like E3 ubiquitin-protein ligase WWP2 M440G, O00308”, for which the abundance fitness is -0.284 ± 0.11.

“NEDD4-like E3 ubiquitin-protein ligase WWP2 M440I, O00308”: the abundance fitness is -0.021 ± 0.076.

“NEDD4-like E3 ubiquitin-protein ligase WWP2 M440K, O00308” registered an abundance fitness of 0.4 ± 0.12.

With “NEDD4-like E3 ubiquitin-protein ligase WWP2 M440L, O00308”, the abundance fitness was -0.065 ± 0.1.

“NEDD4-like E3 ubiquitin-protein ligase WWP2 M440N, O00308” came in with an abundance fitness of 0.283 ± 0.12.

In turn, “NEDD4-like E3 ubiquitin-protein ligase WWP2 M440Q, O00308” registered an abundance fitness of 0.206 ± 0.11.

On to “NEDD4-like E3 ubiquitin-protein ligase WWP2 M440R, O00308”, for which the abundance fitness is -0.103 ± 0.087.

For the substance “NEDD4-like E3 ubiquitin-protein ligase WWP2 M440S, O00308”, the abundance fitness was -0.102 ± 0.086.

Take “NEDD4-like E3 ubiquitin-protein ligase WWP2 M440T, O00308”: the abundance fitness was -0.117 ± 0.033.

In the case of “NEDD4-like E3 ubiquitin-protein ligase WWP2 M440V, O00308”, the abundance fitness was -0.114 ± 0.079.

“NEDD4-like E3 ubiquitin-protein ligase WWP2 M440W, O00308”: the abundance fitness was -0.831 ± 0.3.

Turning to “NEDD4-like E3 ubiquitin-protein ligase WWP2 M452A, O00308”, the abundance fitness was -0.01 ± 0.048.

Substance “NEDD4-like E3 ubiquitin-protein ligase WWP2 M452C, O00308” gave an abundance fitness of 0.009 ± 0.055.

Regarding “NEDD4-like E3 ubiquitin-protein ligase WWP2 M452D, O00308”, the abundance fitness is -0.12 ± 0.056.

“NEDD4-like E3 ubiquitin-protein ligase WWP2 M452E, O00308” registered an abundance fitness of 0.046 ± 0.046.

As to “NEDD4-like E3 ubiquitin-protein ligase WWP2 M452F, O00308”, the abundance fitness is -0.097 ± 0.05.

Take “NEDD4-like E3 ubiquitin-protein ligase WWP2 M452G, O00308”: the abundance fitness is -0.197 ± 0.051.

Turning to “NEDD4-like E3 ubiquitin-protein ligase WWP2 M452H, O00308”, the abundance fitness was -0.258 ± 0.066.

Turning to “NEDD4-like E3 ubiquitin-protein ligase WWP2 M452I, O00308”, the abundance fitness was -0.001 ± 0.053.

In the case of “NEDD4-like E3 ubiquitin-protein ligase WWP2 M452K, O00308”, the abundance fitness is -0.36 ± 0.11.

Regarding “NEDD4-like E3 ubiquitin-protein ligase WWP2 M452L, O00308”, the abundance fitness is -0.108 ± 0.042.

As for “NEDD4-like E3 ubiquitin-protein ligase WWP2 M452P, O00308”, the abundance fitness was -0.337 ± 0.054.

As for “NEDD4-like E3 ubiquitin-protein ligase WWP2 M452Q, O00308”, the abundance fitness was -0.107 ± 0.063.

Consider “NEDD4-like E3 ubiquitin-protein ligase WWP2 M452R, O00308”, for which the abundance fitness was -0.103 ± 0.035.

In the case of “NEDD4-like E3 ubiquitin-protein ligase WWP2 M452S, O00308”, the abundance fitness was -0.069 ± 0.04.

Take “NEDD4-like E3 ubiquitin-protein ligase WWP2 M452T, O00308”: the abundance fitness is -0.017 ± 0.033.

As for “NEDD4-like E3 ubiquitin-protein ligase WWP2 M452V, O00308”, the abundance fitness was determined as 0.034 ± 0.038.

“NEDD4-like E3 ubiquitin-protein ligase WWP2 M452W, O00308”: the abundance fitness is -0.194 ± 0.057.

As to “NEDD4-like E3 ubiquitin-protein ligase WWP2 M452Y, O00308”, the abundance fitness is -0.159 ± 0.049.

As to “NEDD4-like E3 ubiquitin-protein ligase WWP2 N466A, O00308”, the abundance fitness was -0.242 ± 0.034.

As for “NEDD4-like E3 ubiquitin-protein ligase WWP2 N466C, O00308”, the abundance fitness was -0.169 ± 0.048.

For the substance “NEDD4-like E3 ubiquitin-protein ligase WWP2 N466D, O00308”, the abundance fitness was -0.377 ± 0.064.

For the substance “NEDD4-like E3 ubiquitin-protein ligase WWP2 N466E, O00308”, the abundance fitness was -0.238 ± 0.069.

As to “NEDD4-like E3 ubiquitin-protein ligase WWP2 N466F, O00308”, the abundance fitness was -0.145 ± 0.071.

“NEDD4-like E3 ubiquitin-protein ligase WWP2 N466G, O00308”: the abundance fitness was -0.184 ± 0.051.

As for “NEDD4-like E3 ubiquitin-protein ligase WWP2 N466H, O00308”, the abundance fitness is -0.169 ± 0.075.

Consider “NEDD4-like E3 ubiquitin-protein ligase WWP2 N466I, O00308”, for which the abundance fitness was -0.261 ± 0.079.

Take “NEDD4-like E3 ubiquitin-protein ligase WWP2 N466K, O00308”: the abundance fitness was -0.202 ± 0.07.

For the substance “NEDD4-like E3 ubiquitin-protein ligase WWP2 N466M, O00308”, the abundance fitness was -0.188 ± 0.07.

Turning to “NEDD4-like E3 ubiquitin-protein ligase WWP2 N466P, O00308”, the abundance fitness was -0.636 ± 0.075.

For “NEDD4-like E3 ubiquitin-protein ligase WWP2 N466Q, O00308”, the abundance fitness is -0.06 ± 0.068.

In the case of “NEDD4-like E3 ubiquitin-protein ligase WWP2 N466R, O00308”, the abundance fitness is -0.164 ± 0.043.

As for “NEDD4-like E3 ubiquitin-protein ligase WWP2 N466S, O00308”, the abundance fitness was -0.175 ± 0.049.

Take “NEDD4-like E3 ubiquitin-protein ligase WWP2 N466T, O00308”: the abundance fitness was -0.255 ± 0.063.

On to “NEDD4-like E3 ubiquitin-protein ligase WWP2 N466V, O00308”, for which the abundance fitness is -0.212 ± 0.048.

On to “NEDD4-like E3 ubiquitin-protein ligase WWP2 N466W, O00308”, for which the abundance fitness was -0.513 ± 0.047.

Take “NEDD4-like E3 ubiquitin-protein ligase WWP2 N466Y, O00308”: the abundance fitness is -0.366 ± 0.085.

For the substance “NEDD4-like E3 ubiquitin-protein ligase WWP2 P444A, O00308”, the abundance fitness was -0.089 ± 0.059.

Take “NEDD4-like E3 ubiquitin-protein ligase WWP2 P444D, O00308”: the abundance fitness is 0.148 ± 0.061.

As to “NEDD4-like E3 ubiquitin-protein ligase WWP2 P444F, O00308”, the abundance fitness amounted to 0.098 ± 0.067.

“NEDD4-like E3 ubiquitin-protein ligase WWP2 P444G, O00308” registered an abundance fitness of 0.089 ± 0.049.

The substance “NEDD4-like E3 ubiquitin-protein ligase WWP2 P444H, O00308” came in with an abundance fitness of 0.015 ± 0.037.

As to “NEDD4-like E3 ubiquitin-protein ligase WWP2 P444I, O00308”, the abundance fitness was -0.2 ± 0.049.

As to “NEDD4-like E3 ubiquitin-protein ligase WWP2 P444K, O00308”, the abundance fitness came out at 0.098 ± 0.071.
